This passage reports Kd results from PMC6849348, “Theranostic Application of a Novel G-Quadruplex-Forming DNA Aptamer Targeting Malate Synthase of Mycobacterium tuberculosis” (Molecular Therapy. Nucleic Acids, 2019).

The target of this data set is malate synthase (MS, GlcB) (Mycobacterium tuberculosis) (UniProt P9WK17). Put plainly: SPR.
malate synthase (MS, GlcB) (Mycobacterium tuberculosis), sequence (P9WK17 whole entry): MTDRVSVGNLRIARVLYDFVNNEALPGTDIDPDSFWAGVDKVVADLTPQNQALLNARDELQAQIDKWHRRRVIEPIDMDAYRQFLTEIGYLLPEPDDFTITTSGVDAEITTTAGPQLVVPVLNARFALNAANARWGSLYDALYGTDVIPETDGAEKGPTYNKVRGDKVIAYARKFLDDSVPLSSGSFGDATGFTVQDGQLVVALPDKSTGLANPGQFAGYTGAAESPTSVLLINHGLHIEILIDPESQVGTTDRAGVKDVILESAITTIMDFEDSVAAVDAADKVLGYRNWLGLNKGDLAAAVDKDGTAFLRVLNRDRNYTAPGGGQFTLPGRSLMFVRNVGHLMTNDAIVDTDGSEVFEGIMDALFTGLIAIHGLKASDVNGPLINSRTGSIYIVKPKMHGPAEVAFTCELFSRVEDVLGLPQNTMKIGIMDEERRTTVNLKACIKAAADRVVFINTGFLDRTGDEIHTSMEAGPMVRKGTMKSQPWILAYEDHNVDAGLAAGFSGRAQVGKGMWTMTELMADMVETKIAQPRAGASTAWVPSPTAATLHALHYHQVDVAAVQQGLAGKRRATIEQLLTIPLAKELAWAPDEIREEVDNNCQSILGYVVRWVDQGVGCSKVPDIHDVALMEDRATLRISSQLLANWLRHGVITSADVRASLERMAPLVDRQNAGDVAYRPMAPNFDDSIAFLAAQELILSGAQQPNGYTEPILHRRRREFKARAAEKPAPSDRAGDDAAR
For “GCAGAGAGAGAGAAAGTGAGAAGGGCGGGGGGGAGAGGGTGGGG [MS5]”, the Kd came to 2700 nM.
Then “GGACCAGGTGAGTGGATGCGGGTGCGGGTGGGGGTGAGGGGGGG [MS4]”, with 9.9 nM; and “GGGTTGTAAGAGGGAGCTGGGAGGGGTCGGGGGGGGGGGTGGC [MS20]”, with 910 nM.
With “GGTGGGATGGGGGGGGGAGGGTAGGGTGTGCAAGTAGAGGGTC [MS6]” the figure was 0.28 nM.
